# Results: article PMC11448365 (Genes to Cells, 2023)
# B1: Irgb6-WT (wild-type Irgb6) (enzyme, mouse)
# chain: MAWASSFDAFFKNFKRESKIISEYDITLIMTYIEENKLQKAVSVIEKVLRDIESAPLHIAVTGETGAGKSTFINTLRGVGHEEKGAAPTGAIETTMKRTPYPHPKLPNVTIWDLPGIGTTNFTPQNYLTEMKFGEYDFFIIISATRFKENDAQLAKAIAQMGMNFYFVRTKIDSDLDNEQKFKPKSFNKEEVLKNIKDYCSNHLQESLDSEPPVFLVSNVDISKYDFPKLETKLLQDLPAHKRHVFSLSLQSLTEATINYKRDSLKQKVFLEAMKAGALATIPLGGMISDILENLDETFNLYRSYFGLDDASLENIAQDLNMSVDDFKVHLRFPHLFAEHNDESLEDKLFKYIKHISSVTGGPVAAVTYYRMAYYLQNLFLDTAANDAIALLNSKALFEKKVGPYISEPPEYWEA
# Molecular target: the molecule itself
# Test: mass photometry
protein,measurement,value
B1,stoichiometry N,2
